This data set concerns the molecule itself. Nature of the data set: western blot of cell extracts; extracts of TNBC (MDA-MB-231) cells incubated in TPBC-medium, TNBC-medium or S-medium; detected with a polyclonal antibody to S100A4; gel conditions not stated.

B1: S100A4 protein (natural protein)
chain: not shown
notes: S100A4 (Mts1), endogenous in the human triple-negative breast carcinoma cell line MDA-MB-231; Monomeric, dimeric and tetrameric forms were told apart as bands on a western blot of cell extracts; also called Mts1; source: endogenous, MDA-MB-231 (TNBC) cell extract
As a reminder, the stoichiometry N is a count of units in the complex or per binding partner. Regarding B1, the “stoichiometry N” value was 4.

The record behind these values is article PMC9116394, “Triple-negative and triple-positive breast cancer cells reciprocally control their growth and migration via the S100A4 pathway” (Cell Adhesion & Migration, 2022).
